According to the Immune Epitope Database (IEDB):

What was measured:
Assay in all cases: IEDB peptide-MHC binding, purified MHC/competitive/radioactivity; ≥ and ≤ were set here for values at or beyond the usual limits of such assays
HLA-A*02:01 = biological target: HLA-A*02:01
HLA-A*02:02 = biological target: HLA-A*02:02
HLA-A*02:03 = biological target: HLA-A*02:03
HLA-A*02:06 = biological target: HLA-A*02:06
HLA-A*68:02 = biological target: HLA-A*68:02
[1] = source organism: Vaccinia virus WR
[2] = source organism: Hepacivirus hominis
[3] = source organism: Influenza A virus
[4] = source organism: Mammarenavirus choriomeningitidis

Sequence	IC50 (HLA-A*02:01; [1])	IC50 (HLA-A*02:02; [1])	IC50 (HLA-A*02:03; [1])	IC50 (HLA-A*02:06; [1])	IC50 (HLA-A*68:02; [1])	further results
FTKDGKLDDT	980 nM	145 nM	187 nM	898 nM	4080 nM	–
FVATFRDMLL	16 nM	0.7 nM	18 nM	4.4 nM	409 nM	–
TILDDNLYKV	239 nM	1080 nM	1630 nM	49 nM	1420 nM	–
VVISVIFYFI	616 nM	239 nM	755 nM	542 nM	583 nM	–
YQCGHYTHI	–	–	–	–	–	IC50 (HLA-A*02:01; source organism: SARS-CoV1): 20 nM; IC50 (HLA-A*02:02; source organism: SARS-CoV1): 72 nM; IC50 (HLA-A*02:03; source organism: SARS-CoV1): 15 nM; IC50 (HLA-A*02:06; source organism: SARS-CoV1): 9.2 nM; IC50 (HLA-A*68:02; source organism: SARS-CoV1): 2920 nM
EAAAATCALV	318 nM	1810 nM	248 nM	60 nM	0.21 nM	–
FVNFVKDMI	1790 nM	55 nM	124 nM	229 nM	0.62 nM	–
VMYAFTTPL	0.87 nM	0.57 nM	1.3 nM	5.7 nM	112 nM	–
LIANIFTPLV	–	–	–	–	–	IC50 (HLA-A*02:01; source organism: SARS-CoV1): 12 nM; IC50 (HLA-A*02:02; source organism: SARS-CoV1): 0.4 nM; IC50 (HLA-A*02:03; source organism: SARS-CoV1): 13 nM; IC50 (HLA-A*02:06; source organism: SARS-CoV1): 16 nM; IC50 (HLA-A*68:02; source organism: SARS-CoV1): 19 nM
DTMSIYIAVA	83 nM	19 nM	24 nM	1480 nM	17 nM	–
MLFTKFFYL	–	–	–	–	–	IC50 (HLA-A*02:01; source organism: SARS-CoV1): 0.17 nM; IC50 (HLA-A*02:02; source organism: SARS-CoV1): 0.085 nM; IC50 (HLA-A*02:03; source organism: SARS-CoV1): 17 nM; IC50 (HLA-A*02:06; source organism: SARS-CoV1): 1.4 nM; IC50 (HLA-A*68:02; source organism: SARS-CoV1): 0.056 nM
LTNAISSRV	916 nM	146 nM	19 nM	145 nM	16 nM	–
LATLNTLITL	848 nM	139 nM	338 nM	323 nM	1040 nM	–
TLLGCWSFV	–	–	–	–	–	IC50 (HLA-A*02:01; [2]): 30 nM; IC50 (HLA-A*02:02; [2]): 87 nM; IC50 (HLA-A*02:03; [2]): 41 nM; IC50 (HLA-A*02:06; [2]): 134 nM; IC50 (HLA-A*68:02; [2]): 1780 nM
TLIDFYLCFL	–	–	–	–	–	IC50 (HLA-A*02:01; source organism: SARS-CoV1): 2.2 nM; IC50 (HLA-A*02:02; source organism: SARS-CoV1): 0.041 nM; IC50 (HLA-A*02:03; source organism: SARS-CoV1): 3.6 nM; IC50 (HLA-A*02:06; source organism: SARS-CoV1): 3 nM; IC50 (HLA-A*68:02; source organism: SARS-CoV1): 151 nM
RIITILQDIV	526 nM	595 nM	209 nM	95 nM	290 nM	–
TTIGTIAGGV	978 nM	741 nM	43 nM	84 nM	0.2 nM	–
CTINVNSLAL	1040 nM	494 nM	1040 nM	216 nM	517 nM	–

Sequence	IC50 (HLA-A*02:01; [1])	IC50 (HLA-A*02:02; [1])	IC50 (HLA-A*02:03; [1])	IC50 (HLA-A*02:06; [1])	IC50 (HLA-A*68:02; [1])	further results
RLPSETFPNV	0.11 nM	173 nM	14 nM	0.58 nM	91 nM	–
NTISGNIYSA	640 nM	269 nM	314 nM	393 nM	0.19 nM	–
IVVPVIDRL	241 nM	144 nM	226 nM	31 nM	35 nM	–
MVTDKTAYI	227 nM	17 nM	2 nM	25 nM	3.2 nM	–
IALALEQYGI	3020 nM	980 nM	4920 nM	1130 nM	2900 nM	–
TVQEFIFSAL	321 nM	81 nM	90 nM	44 nM	7.8 nM	–
SISEINEWL	1.9 nM	0.13 nM	1.8 nM	6.3 nM	1.3 nM	–
QMAGVEVRYI	6.4 nM	0.21 nM	0.14 nM	45 nM	147 nM	–
NLFEKFFPSS	–	–	–	–	–	IC50 (HLA-A*02:01; [3]): 271 nM; IC50 (HLA-A*02:02; [3]): 415 nM; IC50 (HLA-A*02:03; [3]): 362 nM; IC50 (HLA-A*02:06; [3]): 28 nM; IC50 (HLA-A*68:02; [3]): 360 nM
VLALYSPPL	0.19 nM	0.22 nM	0.41 nM	33 nM	1400 nM	–
RIITILQDI	146 nM	583 nM	5.6 nM	2 nM	1490 nM	–
NSLILLECFV	–	–	–	–	–	IC50 (HLA-A*02:01; [4]): 7.4 nM; IC50 (HLA-A*02:02; [4]): 1.2 nM; IC50 (HLA-A*02:03; [4]): 47 nM; IC50 (HLA-A*02:06; [4]): 4.2 nM; IC50 (HLA-A*68:02; [4]): 43 nM
YLRLYIILA	190 nM	8.3 nM	52 nM	4180 nM	2720 nM	–
SMSQELAELL	32 nM	6.2 nM	55 nM	474 nM	1300 nM	–
TLLIKTLSPA	0.49 nM	1 nM	1.2 nM	0.73 nM	1210 nM	–
NLETYTRPEI	1220 nM	539 nM	1500 nM	636 nM	2080 nM	–
FVMCLEAKT	3840 nM	609 nM	1940 nM	979 nM	1510 nM	–
